Experimental data taken from paper PMC11334799.

Legend:
[1] = target: human C3b (human) (UniProt P01024); assay: BLI
[2] = target: human C3b (human) (UniProt P01024)

human C3b (human), sequence (P01024 23-667, chain 1 of 2): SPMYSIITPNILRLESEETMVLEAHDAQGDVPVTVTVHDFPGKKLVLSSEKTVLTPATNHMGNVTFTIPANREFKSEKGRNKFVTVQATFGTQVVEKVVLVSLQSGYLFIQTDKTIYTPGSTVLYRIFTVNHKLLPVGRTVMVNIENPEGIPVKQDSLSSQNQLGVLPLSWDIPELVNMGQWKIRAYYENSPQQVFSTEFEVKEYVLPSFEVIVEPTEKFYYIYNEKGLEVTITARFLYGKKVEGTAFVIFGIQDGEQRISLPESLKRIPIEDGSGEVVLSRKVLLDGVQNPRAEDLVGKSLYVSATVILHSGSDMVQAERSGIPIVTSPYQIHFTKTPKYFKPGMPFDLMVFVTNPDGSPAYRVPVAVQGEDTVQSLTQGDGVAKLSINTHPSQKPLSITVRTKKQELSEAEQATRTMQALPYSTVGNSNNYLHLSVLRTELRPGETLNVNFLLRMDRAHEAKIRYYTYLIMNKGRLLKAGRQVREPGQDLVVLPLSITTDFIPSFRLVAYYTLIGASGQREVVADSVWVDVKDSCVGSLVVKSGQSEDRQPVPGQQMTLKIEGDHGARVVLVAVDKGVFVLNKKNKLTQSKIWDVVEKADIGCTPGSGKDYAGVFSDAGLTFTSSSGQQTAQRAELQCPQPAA
human C3b (human), sequence (P01024 749-1663, chain 2 of 2): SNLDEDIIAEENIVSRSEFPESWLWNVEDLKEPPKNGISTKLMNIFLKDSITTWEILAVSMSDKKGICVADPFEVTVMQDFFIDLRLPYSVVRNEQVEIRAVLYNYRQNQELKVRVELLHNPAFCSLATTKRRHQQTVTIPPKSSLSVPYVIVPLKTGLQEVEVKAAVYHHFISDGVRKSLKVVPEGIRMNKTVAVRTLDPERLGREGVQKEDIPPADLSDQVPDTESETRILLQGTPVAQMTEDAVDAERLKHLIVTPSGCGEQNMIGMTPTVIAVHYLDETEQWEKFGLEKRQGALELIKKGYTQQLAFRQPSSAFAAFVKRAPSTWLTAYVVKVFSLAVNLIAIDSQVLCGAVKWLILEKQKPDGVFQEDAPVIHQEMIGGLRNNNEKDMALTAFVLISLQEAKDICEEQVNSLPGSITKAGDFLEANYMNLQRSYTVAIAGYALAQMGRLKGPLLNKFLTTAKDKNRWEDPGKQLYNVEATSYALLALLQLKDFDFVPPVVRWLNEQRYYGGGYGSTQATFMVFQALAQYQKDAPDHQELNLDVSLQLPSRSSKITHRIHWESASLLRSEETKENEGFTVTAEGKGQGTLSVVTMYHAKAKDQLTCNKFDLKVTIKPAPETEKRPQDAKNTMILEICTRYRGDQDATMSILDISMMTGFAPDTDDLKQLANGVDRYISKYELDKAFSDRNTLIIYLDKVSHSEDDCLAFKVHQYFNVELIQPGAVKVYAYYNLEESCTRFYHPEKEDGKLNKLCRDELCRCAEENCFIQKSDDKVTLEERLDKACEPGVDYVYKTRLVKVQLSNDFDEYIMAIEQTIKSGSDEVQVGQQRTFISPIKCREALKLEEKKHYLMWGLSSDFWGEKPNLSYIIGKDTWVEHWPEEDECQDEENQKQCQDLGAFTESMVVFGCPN

Kd [1]: 4.24 nM
Substance: CG001, (CRIg-FH-IgG4 Fc) x2 (from UniProt Q9Y279 20-283; P08603 18-264) (Fc fusion)
AP-mediated hemolysis of rabbit erythrocytes (12% NHS), IC50 [2]: 88.9 nM
AP-mediated hemolysis of rabbit erythrocytes (12% NHS), IC95 [2]: 207 nM
CP-mediated hemolysis of sheep erythrocytes (0.2% hemolysin, 1% NHS), IC50 [2]: 446 nM
CP-mediated hemolysis of sheep erythrocytes (0.2% hemolysin, 1% NHS), IC95 [2]: 34200 nM
